Laboratory results: paper PMC2901339
Where two headings read alike, the source gives them in different places.

Assays:
NF-PLN RΔ14 (rabbit) = NF-PLN RΔ14 (rabbit) (UniProt P61015); assay: co-IP; lysates of transfected HEK cells, FLAG-tagged PLN constructs precipitated with anti-Flag antibody and Protein G-Sepharose, 4°C, 0.1% Triton-X100, blot with COP I antibody
[1] = molecular target: NF-R13E/R14E (N-terminally FLAG-tagged PLN R13E/R14E) (rabbit) (UniProt P61015); assay: as above
[2] = molecular target: coatomer protein I (COP-I), endogenous, HEK cells (human (endogenous in HEK-293)) (UniProt P53618); assay: co-IP; lysates of HEK cells transfected with V5 tagged constructs, immunoprecipitated with anti COP I antibody, blot with anti V5 antibody
[3] = molecular target: coatomer protein I (COP-I), endogenous, HEK cells (human (endogenous in HEK-293)) (UniProt P53618); assay: as above; remark: listed apart in the source

coatomer protein I (COP-I), endogenous, HEK cells (from UniProt P53618 1-953) (complex)
fold reduction in band intensity against NF-PLN (NF-PLN RΔ14 (rabbit)): 5 fold
fold reduction in band intensity against NF-PLN [1]: 5 fold

V5 tagged Sigma 1R R7E/R8E (from UniProt Q99720 1-223) (natural protein)
fold band intensity of the wild type over this mutant [2]: > 2 fold

B1: V5 tagged SR β R7E/R8E (natural protein)
chain: MASADSEEVADGGGAGGTFQPYLDTLRQELQQTDPTLLSVVVAVLAVLLTLVFWKLIRSRRSSQRAVLLVGLCDSGKTLLFVRLLTGLYRDTQTSITDSCAVYRVNNNRGNSLTLIDLPGHESLRLQFLERFKSSARAIVFVVDSAAFQREVKDVAEFLYQVLIDSMGLKNTPSFLIACNKQDIAMAKSAKLIQQQLEKELNTLRVTRSAAPSTLDSSSTAPAQLGKKGKEFEFSQLPLKVEFLECSAKGGRGDVGSADIQDLEKWLAKIA
fold band intensity of the wild type over this mutant [3]: > 2 fold
